The labels stand for the following.
B1: TPR t1 (parent)
chain: GACCAAUCUGCCCUCAGAGCUCGAGAACAUCUUCGGAUGCAGAGGAGGCAGGCUUCGGUGGCGCGAUAGCGCCAACGUCCUCAACCUCCAAUGCAUCCCACCACAUGAUGAUGCCUGAAGAGCCUUGGUUUUUUG

Here are results for 83 variants from the RNAGym collection of RNA variant scans (doi:10.1073/pnas.2313332121).

Variants of B1 are the subject of the series. Put plainly: polymerase ribozyme fitness, log enrichment relative to wild type (log ratio); higher = more active; in vitro selection for triplet polymerase activity. In short, it runs like this: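 Fitness is a logarithmic measure of how a genotype enriched relative to the wild type, with replicate averages weighted by inverse variance. The logarithm uses base 2, and enrichment came from Illumina sequencing of input and output libraries. Those libraries were PCR-built, transcribed mutants of each subunit of a heterodimeric triplet polymerase ribozyme, passed through one triplicate in vitro selection round that included frozen incubation at −7 °C, gel excision of extended constructs and streptavidin-bead capture. Genotypes were kept only if they had ≥10 input reads and ≥1 read per output.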
Take G60C C88U: the “polymerase ribozyme fitness (log ratio)” value was -0.669.
The figure for C20U U81A is -1.98; for A6G C49U G69U it is -0.168.
To C64U A121G belongs 1.93; to C8U C15U G57U C82U U112A A118G, 0.233; to A46C U81A G93U, -2.96.
To C4A A74U belongs -1.77.
Consider G42C U87A, for which the “polymerase ribozyme fitness (log ratio)” value is -1.23.
The figure for C15A C20U G58A U87G A90C C114G is -4.17; for G47C U55G C72G U106A U129A G135C it is -2.99; for A74G G110A A111G it is 0.0395.
To G61A A105G belongs -1.89; to C20G U55G C72U A119G, -2.6.
The figure for C53G C72G C123U is 0.978; for A29U G45U G69U it is -2.7.
For the variant G17A U78A G117A, the “polymerase ribozyme fitness (log ratio)” value is -2.6.
To G63C G107U belongs -5.92.
For the variant C56U C64U A74G, the “polymerase ribozyme fitness (log ratio)” value is -3.32.
The figure for A43U G57U C86A is -2.97.
The figure for G39A C86A C123A is -1.81; for C20G C86A it is -4.53.
The figure for C88G U129A is -3.06; for A46U C70A G120U it is -1.59; for G71A C80U it is -2.57.
Consider C4A G110A, for which the “polymerase ribozyme fitness (log ratio)” value was -2.19.
The figure for G36U A90G is -0.944; for G10A C56G C82G C115G A121U it is -0.467; for C62U U109A it is -4.57.
The figure for G52C C53A C97U C101U is -1.86.
To C62A G117U belongs -3.38.
For C11A C72U U78C C82G C101A A121C, the “polymerase ribozyme fitness (log ratio)” value was -0.882.
Take G57U C94A C98U C115U: the “polymerase ribozyme fitness (log ratio)” value is -5.64.
To U9A G77U belongs 1.05.
To U9G A103U belongs -4.16; to C4U C13A C53U, -2.94; to A18U C70A, -5.29.
The figure for C15U A111C U130A is -1.29; for G77C C79U it is 0.563.
For A46C G48A G51A, the “polymerase ribozyme fitness (log ratio)” value was -3.51.
Regarding U7A U14A G44U, the “polymerase ribozyme fitness (log ratio)” value was -2.04.
The figure for G48A G113U G120U is -3.65; for U112A G122U U129C it is 0.27; for C34A C72A C73A C97U it is -3.88.
For the variant G57A A119G, the “polymerase ribozyme fitness (log ratio)” value came to 0.755.
To A43U A118U belongs -1.23; to U125C, -1.8.
On to U54A A95C, for which the “polymerase ribozyme fitness (log ratio)” value was -0.767.
The figure for C49A A68U G69C U112C U130A is -4.19; for C34A G93C it is -3.62.
To C73U C99A C115A U125G belongs -6.08; to C28G A43G G45A C79A C115U G117U, -5.19.
The figure for C15U U30G C53G G71C U78G U106A is -4.3; for G48U C79U it is -2.53; for C11U U112G it is -0.177.
As for G36A G42U C88A G113U, the “polymerase ribozyme fitness (log ratio)” value was -3.82.
Consider C114U G127U, for which the “polymerase ribozyme fitness (log ratio)” value is -3.69.
To C11U G17C C49A G58C belongs -6.04; to G107U G117C, -4.7; to G35U G63U C104G, -7.12.
Consider A41C G69U C79G U106A A121U U126G, for which the “polymerase ribozyme fitness (log ratio)” value is -0.691.
To A29U C72U U92C belongs -2.98; to U14C G36U C53G G61U, -2.63.
The figure for A27C C88G U129C is -4.24; for A46U G52U it is -2.32.
To G45U C72A C114A C123G U133A belongs -2.6; to A41C C104G G107U G110U, -7.15; to G61U C88A, -1.18.
For C13A C28U, the “polymerase ribozyme fitness (log ratio)” value is -3.53.
The figure for G60A C94A G110U is -3.31; for A37U G127A it is -2.32; for A43U C76A G135U it is -3.89.
On to G71A C124G, for which the “polymerase ribozyme fitness (log ratio)” value amounted to 0.316.
The figure for G61U A66C U92A is -4.97.
The figure for A91G C94U U109A U112A is -6.42; for G17C G57A C124U it is -5.29; for C31U A46G C49A G60A A105C G110A it is -5.83.
On to C49U G77C C124G U125C, for which the “polymerase ribozyme fitness (log ratio)” value was -0.664.
To G69C U78G C115U U125A belongs -5.54; to U32C U116A, -3.4; to A2G C89G G110U, -4.03.
The figure for A29C G47U G60C C97U is -6; for U38A G60A C79U it is -1.22; for C64U U81G it is -4.28.
